Tests used:
Test in all cases: purified protein
purified protein [1] = substrate: O=C(O)[C@H]1NCC[C@@H]1O; assay type: biochemical, Gillisella ampelina; conditions: t3HypD (dehydration) reaction, 50 mM Na-phosphate pH 8.0, 1 mM DTT, 25°C
purified protein [2] = substrate: O=C(O)[C@H]1NCC[C@@H]1O; conditions: t3HypD (dehydration) reaction, 50 mM Na-phosphate pH 8.0, 1 mM DTT, 25°C
purified protein [3] = substrate: O=C(O)[C@@H]1C[C@@H](O)CN1; assay type: biochemical, Roseibium aggregatum; conditions: 4HypE reaction (start from t4Hyp as in Figure 1), 50 mM Na-phosphate pH 8.0, 1 mM DTT, 25°C
purified protein [4] = substrate: O=C(O)[C@H]1NCC[C@@H]1O; assay type: biochemical, Agrobacterium fabrum; conditions: t3HypD (dehydration) reaction, 50 mM Na-phosphate pH 8.0, 1 mM DTT, 25°C
purified protein [5] = substrate: O=C(O)C1=NCCC1; conditions: 0.16 mM NADPH, 50 mM Tris-HCl pH 7.6, 25°C
purified protein [6] = substrate: O=C(O)[C@@H]1C[C@@H](O)CN1; assay type: biochemical, Paracoccus denitrificans; conditions: 4HypE reaction (start from t4Hyp as in Figure 1), 50 mM Na-phosphate pH 8.0, 1 mM DTT, 25°C
purified protein [7] = substrate: O=C(O)[C@@H]1C[C@@H](O)CN1; assay type: biochemical, Shewanella loihica; conditions: 4HypE reaction (start from t4Hyp as in Figure 1), 50 mM Na-phosphate pH 8.0, 1 mM DTT, 25°C
purified protein [8] = substrate: O=C(O)[C@@H]1C[C@@H](O)CN1; assay type: biochemical, Streptosporangium roseum; conditions: 4HypE reaction (start from t4Hyp as in Figure 1), 50 mM Na-phosphate pH 8.0, 1 mM DTT, 25°C
purified protein [9] = substrate: O=C(O)[C@@H]1C[C@@H](O)CN1; assay type: biochemical, Agrobacterium fabrum; conditions: 4HypE reaction (start from t4Hyp as in Figure 1), 50 mM Na-phosphate pH 8.0, 1 mM DTT, 25°C
purified protein [10] = substrate: O=C(O)[C@H]1NCC[C@@H]1O; assay type: biochemical, Burkholderia ambifaria; conditions: t3HypD (dehydration) reaction, 50 mM Na-phosphate pH 8.0, 1 mM DTT, 25°C

B1: Avi_7022 (B9K4G4) (Allorhizobium ampelinum S4) (protein)
chain: MRTNKVIHVIGVHAEGEVGDVIVGGVSPPPGDTLWEQSRFIASDETLRNFVLNEPRGGVFRHVNLLVPPKDPRAQMGFIIMEPADTPPMSGSNSICVSTAILDSGIISMQEPLTHMVLEAPGGVIEVTAECANGKAERINVLNVASFVTRLAAALEVEGLGTLTVDTAYGGDSFVIVDAIGLGFSLKPDEARELAELGMKITAAANEQLGFVHPCNADWNHISFCQMTTPITRENGILTGKSAVAIRPGKIDRSPTGTGCSARLAVMHARGEIGIGETYIGRSIIDSEFKCHIDSLTEIGGLSAIRPVISGRAWITGVSQLMLDPTDPWPSGYQLSDTWPAI
**Q.** Which results are given for B1?
**A.** Km (purified protein [1]): 15 ± 3 mM; kcat (purified protein [1]): 4.3 ± 0.4 s⁻¹

B2: SIAM614_28502 (A0NXQ9) (Roseibium aggregatum IAM 12614) (protein)
chain: MRSTKTIHVISCHAEGEVGDVIVGGVAPPPGETLWEQRSFIARDQTLRNFVLNEPRGGVFRHVNLLVPPRHPEADAAFIIMEPEDTPPMSGSNSICVSTVLLDGGIVPMIEPITEMVLEAPGGLVRVKAECRNGKAERIFVQNVTSFADKLSVPLDVEGIGTLTVDTAYGGDSFVVVDAEALGFAIVEDEAKDIARLGVRITNAANEQLGFSHPENPDWNHISFCAFCGPLSQTPTGLTGRSAVAIQPGKVDRSPTGTAVSARMALMAARGQMTIGDTFEAVSIIGSSFTGRIVSQQMAGDRPGIVPEISGRGWITGIHQHMLDPSDPWPGGYKLSDTWGA
**Q.** B2 was tested. Which Km (purified protein [2]) did it give?
**A.** 7.8 ± 1 mM

**Q.** What about the kcat (purified protein [2]) of the same protein?
**A.** 15 ± 0.9 s⁻¹

B3: SIAM614_28492 (A0NXQ7) (Roseibium aggregatum IAM 12614) (protein)
chain: MRVIDSHTAGEPTRVVLDGGPDLGSGTLAERAARLEAEHLDFCASVVLEPRGHDAIIGALLVPPSDPACAAGVIYFNNLQNLGMCGHATIGLGVTLAHLGRIRPGRHRFETPVGVVEIDLIDANTVSVVNIESYRLAKDVTVEVEGVGPVTGDVAWGGNWFFLVKNSPIALTGANIRPLTDLTLKIRTALEKAGVTGKDGAWIDHIELFGPAEDPAAQSRNFVLCPGGAYDRSPCGTGCSAKLACLAADGALAPGQDYLQESVIGSTYKISYQPGPGGGVIPTITGQAFVTSDATLIFNPADPYRSGIRL
**Q.** With B3 as the protein, how does the Km (purified protein [3]) read?
**A.** 3.2 ± 0.5 mM

**Q.** What about the kcat (purified protein [3]) of the same protein?
**A.** 55 ± 3 s⁻¹

B4: Atu4684 (A9CH01) (Agrobacterium fabrum str. C58) (protein)
chain: MRSIKTVHVISAHAEGEVGDVIVGGVKPPPGETIWEQSRFIARDETLRNFVLNEPRGGVFRHVNLLVPPKHPDADAAFIIMEPEDTPPMSGSNSICVSTVLLDGGIVPMQEPETHMLLEAPGGLVKVRAECRNGKAERIFVQNLPSFAAKLDAELEVEGLGKLKVDTAYGGDSFVIVDAEAMGFSLKPEEAHEIARLGVRITNAANKALGFDHPENPDWRHFSFCLFAGKVERTAEGLRAGAAVAIQPGKVDRSPTGTALSARMAVLHARGEMKEGETLTAVSLIGSTFTGRILGTTTVGDRPAILPEISGRGWITGIHQHMLDPSDPWPEGYRLTDTWGAR
**Q.** For B4, which Km (purified protein [4]) is on record?
**A.** 4.2 ± 0.8 mM

**Q.** What about the kcat (purified protein [4]) of the same protein?
**A.** 27 ± 1 s⁻¹

B5: RSP_0854 (Q3IZJ8) (Cereibacter sphaeroides 2.4.1) (protein)
chain: MSIEIIGPEAEAHLSWDGLTTALTQGHKLPRAEVADIFLYRGKDTVLSRAAWIDGLGQLVKTATIFPGNGAAGKPTVNGAVTLYSDRDGTLEALVDFHLVTKWKTAGDSLLAAKRLARRDSREILLVGAGNVARSMIEAYGSHFPDARFTVWNRSADKARAMEGPQVRATEDLEAAVRAADIICTATMSQEPVVKGEWLKPGTHLDLIGAYRPDMREVDDEALRRATVFVDSRKTTIGHIGEIQDPLDRGILTEADIRADYYDLASGLYARRSDEEITLAKNGGGAHLDLMTASYIAAMWRQR
**Q.** For B5, which Km (purified protein [5]) is on record?
**A.** 0.43 ± 0.09 mM

**Q.** And the kcat (purified protein [5])?
**A.** 66 ± 4 s⁻¹

B6: Pden_4859 (A1BBM5) (Paracoccus denitrificans PD1222) (protein)
chain: MTQYIFPCIDGHTCGNPVRLVAGGAPRLEGATMLEKRAHFLREFDWIRTGLMFEPRGHDMMSGAILYPPTRGDCDVAVLYIETSGCLPMCGHGTIGTITMGIENGLIVPRTPGRLSIETPAGKVDIEYRQEGRHVEEVRLTNVPGFLYAEGLTAEVEGLGEIVVDVAYGGNFYAIVEPQKNFRDMADHTAGELIGWSLTLRAALNQKYEFTHPEHPQINGLSHIQWTGAPTVPGAHARNAVFYGDKAIDRSPCGTGTSARMAQLAARGRLGVGDEFWHESIIGSIFKGRIEAAATVAGRDAIIPSIAGWARQTGLNTIFIDAERDPFAHGFVVK
**Q.** Which Km (purified protein [6]) does the source give for B6 here?
**A.** 25 ± 5 mM

**Q.** And the kcat (purified protein [6])?
**A.** 16 ± 2 s⁻¹

B7: Shew_2363 (A3QFI1) (Shewanella loihica PV-4) (protein)
chain: MLKGTFFCVDAHTCGNPVRLVTSGHPDLKGRTMSEKRQDFLAQYDWIRKALMFEPRGHDMMSGAFLYPPCSDNADAAILFIETSGCLPMCGHGTIGTITAALESGLLTPKMPGQLTIDVPAGQIKVQYQQTGAKVDWVKIFNVPAYLAHKDVVLDIPGLGPLKIDVSYGGNYYAIVDPQANFPGLRHWSAGDILRWSPIVREVAHRELNCVHPDDPTVNGVSHVLWTGDTISEGSNGANAVFYGDKAIDRSPCGTGTSARLAQLYSRGELKVGDEYTHESIIGSQFVGRIEAATKVGAFDAIMPSIKGWARITGHNAITVDDNDPYAFGFQVV
**Q.** B7 was tested. Which Km (purified protein [7]) did it give?
**A.** 12 ± 3 mM

**Q.** And the kcat (purified protein [7])?
**A.** 50 ± 6 s⁻¹

B8: SM_b20270 (Q92WR9) (Sinorhizobium meliloti 1021) (protein)
chain: MRSTKTIHVISAHAEGEVGDVIVGGVAPPPGDTIWEQSRWIAREQTLRNFVLNEPRGGVFRHVNLLVPPKHPDADAAFIIMEPEDTPPMSGSNSICVSTVLLDSGILPMKEPVTEITLEAPGGLVRVRAECRDGKAERIFVENLPSFAERLDAKLEVEGLGTLTVDTAYGGDSFVIVDAAAMGFALKPDEAHDIARLGVRITNAANAKLGFHHPENPDWRHFSFCLFAGPVERTAEGLRAGAAVAIQPGKVDRSPTGTALSARMAVLHARGQMGLSDRLTAVSLIGSTFSGRILGTTEVGGRPAVLPEISGRAWITGTHQHMLDPSDPWPEGYRLTDTWGAR
**Q.** With B8 as the protein, how does the Km (purified protein [2]) read?
**A.** 3.8 ± 0.4 mM

**Q.** What about the kcat (purified protein [2]) of the same protein?
**A.** 7.9 ± 0.2 s⁻¹

B9: Pden_1185 (A1B196) (Paracoccus denitrificans PD1222) (protein)
chain: MARKSSAPQFLSYGDATGRLSWRDAVEALRQGHTLPQAQIRDVFLGPPTGTMMSRSAWIEGLGYGAKTFTVFDGNAARGLPTVQGAMLVFDKDDGRLQAIVDSPLVTEFKTAADSVLGASLLARPDSRHLLIVGAGTVAASLVRAYTAVLPGIERVSVWARRPQQAQDLIEGLDGIEADLAAVSDLPAAVGQADIVSSATMARQPVILGAWVRPGTHVDLIGAFKADMREADDALMARAALFVDSRETTLGHIGELMLPIASGAITAESVLGDLYDLVRPGARRRQSEDEITVFKNGGGAHLDLMIASYIARVMAG
**Q.** With B9 as the protein, how does the Km (purified protein [5]) read?
**A.** 3.1 ± 0.7 mM

**Q.** And the kcat (purified protein [5])?
**A.** 260 ± 20 s⁻¹

B10: Sros_6004 (D2AV87) (Streptosporangium roseum DSM 43021) (protein)
chain: MRTKRVFHAVDSHTEGMPTRVITGGVGVIPGSTMAERREHFLAEMDHVRTLLMYEPRGHSAMSGAILQPPTRPDADYGVLYIEVSGCLPMCGHGTIGVATVLVETGMVEVVEPVTTIRLDTPAGLVVAEVRVEDGAATAVTITNVPSFSAGLDRTVKVPGIGEVTYDLAYGGNFYAILPIESVGLPFDRAHKQQILDAGLAIMDAINEQDEPVHPLDAGIRGCHHVQFTAPGSDARHSRHAMAIHPGWFDRSPCGTGTSARMAQLHARGELPLDTDFVNESFIGTRFVGRLVEETEVTDLPAVVPTITGRAWVTGTAQYFLDPRDPFPEGFLL
**Q.** Which results are given for B10?
**A.** Km (purified protein [8]): 7.8 ± 1 mM; kcat (purified protein [8]): 14 ± 0.8 s⁻¹

B11: Atu0398 (A9CKB4) (Agrobacterium fabrum str. C58) (protein)
chain: MRWKRTLQLLDVHCEGEIGRVVTGGAPKIPGNTVAEQLHWMNTDPQGEALRRFLTLEPRGTPMGSVDLLLPPKHPDAHAAFVILQPDQAHASSGSNSICATTALLESGMVEMQEPETVIILETAAGLVKATATCRDGRCEKVKLTMVPSFVHELDVSIDTPEWGRVTMDISYGGIFYALVDVRQIGLTIEKANAAKLVAAGMTLKDLVNREMTVVHPEIPAISGVAYVMFRDVDADGSIRTCTTMWPGRADRSPCGTGNSANLATLYARGKVKVGDEYKSRSIIGSEFDVGLSAVTEVAGRPAVIPTIAGRGFTFGLHQVGLDPFDPLGDGFAMTDVWGPEAGNI
**Q.** With B11 as the protein, how does the Km (purified protein [9]) read?
**A.** 4.6 ± 2 mM

**Q.** What about the kcat (purified protein [9]) of the same protein?
**A.** 0.86 ± 0.1 s⁻¹

B12: Bamb_3769 (Q0B950) (Burkholderia ambifaria AMMD) (protein)
chain: MKISRSLSTVEVHTGGEAFRIVTSGLPRLPGDTIVQRRAWLKENADEIRRALMFEPRGHADMYGGYLTEPVSPTADFGVIFLHNEGYSDHCGHGVIALSTAAVELGWVQRTVPETRVGIDAPCGFIEAFVQWDGEHAGPVRFVNVPSFIWRRDVSVDTPSFGTVTGDIAYGGAFYFYVDGAPFDLPVREAAVEKLIRFGAEVKAAANAKYPVVHPEIPEINHIYGTIIANAPRHPGSTQANCCVFADREVDRSPTGSGTGGRVAQLYQRGVLAAGDTLVNESIVGTVFKGRVLRETMVGDIPAVIPEVEGSAHICGFANWIVDERDPLTYGFLVR
**Q.** B12 was tested. Which Km (purified protein [10]) did it give?
**A.** 13 ± 3 mM

**Q.** And the kcat (purified protein [10])?
**A.** 43 ± 4 s⁻¹

B13: PFL_1416 (Q4KGT8) (Pseudomonas protegens Pf-5) (protein)
chain: MSEYITLSLDEVCALSYQVLTRHGLSDAHARAIAEVITQGQRDECHSHGVYRLLGCVRSVREGRIDPRAEPSLRHVSPGVLEVDAHYGYSLLGFHTGLPILAEKARSQGIAAMVIKRCFHFSALWPEVEAIADYGLVGMAMNPSHSWVAPAGGRQPVFGTNPLAFAWPRPGGQPFVFDFATSAIARGDIELHARQGKPIPEHWAIDADGQPTTDAKAALQGAMQTFGGHKGSALAAMIELLAGALIGDLTSAESMAFDGGVGATPCHGELVLAFDPRVFLGEGYEQGLERAEGLFAAIARQGARLPSQRRFAARARSLEHGVQIPRGLLEDIRGLL
**Q.** Which results are given for B13?
**A.** Km (purified protein [5]): 1.1 ± 0.2 mM; kcat (purified protein [5]): 20 ± 0.8 s⁻¹
